Source: patent US20070072177A1 (CRUCELL HOLLAND B V, published 2007)
Residue numbers refer to the chain shown, from its start.

B1: SC04-001 (scFv)
scFv: AMAEVQLVESGGGVVRPGGSLRLSCAASGFTFDDYGMSWVRQAPGKGLEWVSGINWNGGSTGYADSVKGRFTISRDNAKNSLYLQMNSLRAEDTAVYYCAKGLYGELFDYWGQGTLVTVSRGGGGSGGGGSGGGGSSELTQDPAVSVALGQTVRITCQGDSLRSYYASWYQQKPGQAPVLVIYGKNNRPSGIPDRFSGSSSGNTASLTITGAQAEDEADYYCNSRDSSGNHVVFGGGTKLTVLGAAA
B2: SC04-008 (scFv)
scFv: AMAQVTLKESGPTLVKPTQTLTLTCTFSGFSLSTSGVGVGWIRQPPGKALEWLARIDWDDDKYYSTSLKTRLTISKDTSKNQVVLTMTNMDPVDTATYYCARMGFTGTYFDYWGQGTLVTVSSGTGGSGGTGSGTGGSTQAVLTQPSSVSVAPGETASVTCGGDNIGSKSVHWYQKKPGQAPVLVVFDDSDRPSGIPERFSGSTSGNTAALTISRVEAGDEADYYCQVWDSSNDHLYVFGPGTQLTVLSAAA
B3: SC04-010 (scFv)
scFv: AMAQVQLVQSGGDLVQPGRSLRLSCAASGFTFSSYGMHWVRQAPGKGLEWVADISYDGSNKYYADSVKGRFTISRDNSKNTLYLQMNSLRAEDTAVYYCAKDGLDLTGTIQPFGYWGQGTLVTVSSGTGGSGGTGSGTGGSTDIQMTQSPSSLSASVGDRVTITCRASQGIRNDLGWYQQKPGKAPKLLIYAASSLQSGVPSRFSGSGSGTDFTLTISSLQPEDFATYYCLQDYNYPRTFGQGTKVEIKRAAA
B4: SC04-018 (scFv)
scFv: AMAEVQLVESGPGLVRPSGTLSLTCAVSGGSISSSNWWSWVRQPPGKGLEWIGEIYHSGSTNYNPSLKSRVTISVDKSKNQFSLKLSSVTAADTAVYYCARVSVTTGAFNIWGQGTMVTVSSGTGGSGGTGSGTGGSTQPVLTQPLSASGTPGQRVTISCSGDTSNIGSNTVHWYQRLPGTAPKLLIHNNNQRPSGVPDRFSGAKSGTSASLAISGLQSEDEADYFCAAWDDNLNGYVFGTGTKVTVLGAAA
B5: SC04-021 (scFv)
scFv: AMAEVQLVESGGGVVQPGRSLRLSCAASGFTFSSYGMHWVRQAPGKGLEWVAVISYDGSSKYYADSVKGRFTISRDNSKNTLYLQMNSLRAEDTAVYYCAKGSVLGDAFDIWGQGTMVTVSSGTGGSGGTGSGTGGSTDIQMTQSPFSLSASVGDRVTITCRASQGIGSSLAWYQQKPGKAPKLLIYAASSLQSGVPSRFSGSGSGTDFTLTISSLQPEDFATYFCLQHHDYPLTFGGGTKLEIKRAAA
B6: SC04-026 (scFv)
scFv: AMAEVQLVESGAEVKKPGESLKISCKGSGYNFPYSWIAWVRQMPGKGLEWMGIIFPGDSDTRYSPPFQGQVTISADNSKSTAYLQWSSLKASDTAMYYCARTSNWNYLDRFDPWGQGTLVTVSSGTGGSGGTGSGTGGSTDVVMTQSPLSLPVTPGEPASISCRSSQSLLHSNGHDYLDWYVQKPGQSPQPLIYLGSDRASGVPDRFSGSGSGTHFTLNISRVEAEDVGVYYCMQSLQTPWTFGQGTKLEIKRAAA
B7: SC04-164 (scFv)
scFv: AMAEVQLVESGGGVVQPGRSLRLSCAASGFTFSSYGMHWVRQAPGKGLEWVAVISYDGSSKYYADSVKGRFTISRDNSKNTLYLQMNSLRAEDTAVYYCAKGSVLGDAFDIWGQGTMVTVSSGTGGSGGTGSGTGGSTDIQLTQSPSSVSASVGDRVTITCRASQGISSWLAWYQQKPGKAPKLLIYAASSLQSGVPSRFSGSGSGTDFTLTISSLQPEDFATYYCQQANSFPLTFGGGTKVDIKRAAA
B8: SC04-031 (scFv)
scFv: B7 scFv with S60N, L142M, S148F, D243E
B9: SC04-038 (scFv)
scFv: B7 scFv with E4Q, E9Q, S169G, G179E, S194R, L234P, G238Q, K241R, V242L, D243E
B10: SC04-040 (scFv)
scFv: AMAQVQLVQSGGGVVQPGRSLRLSCAASGFTFGSYGMHWVRQAPGKGLEWVATIFYDGSYKDYADSVKGRFTISRDNSKNTLYLQMNSLRAEDTAVYYCAKGSKVGDFDYWGQGTLVTVSSGTGGSGGTGSGTGGSTQPVLTQPPSVSVAPGQTARISCGGDNIGTNTVQWYQQKPGQAPVLVVYDDSDRPSGIPERFSGSNSGDTATLTISRVEAGDEADYYCQVWDDSSDLVVFGGGTKVTVLGAAA
B11: SC04-060 (scFv)
scFv: AMAQVQLVESGPGLVKASETLSLTCTVSDGSISSFYWSWIRQPPGKGLEWVGEIQDTGRTNYNPSLKSRVTISLDTSKNQFSLTLSSVTAADTAVYYCAREKEKYSDRSGYSYYYYYMDVWGKGTTVTVSSGTGGSGGTGSGTGGSTDIQMTQSPSSLSASVGDRVTITCRASQGISTYLNWYQQKPGKAPNLLIYGASNLQSGVPSRFSGSESGTDFTLTISSLQPEDFATYYCQQSFTTPRTFGQGTKLEIKRAAA
B12: SC04-073 (scFv)
scFv: AMAQVQLVQSGGGVAQPGRSLRLSCAASGFTFSSYGMHWVRQAPGKGLEWVADISYDGSNKYYADSVKGRFTISRDNSKNTLYLQMNSLRAEDTAVYYCAKDGLDLTGTIQPFGYWGQGTLVTVSSGTGGSGGTGSGTGGSTDIQLTQSPSFLSASVGDRVTITCRASHSISSWLAWYQQKPGKAPKLLIYKASSLESGVPSRFSGSGSGTDFTLTISSLQPEDFATYYCLQDYNYPRTFGQGTKLEIKRAAA
B13: SC04-097 (scFv)
scFv: AMAEVQLVQSGGHLVQPGGSLRLSCAASGFTFSSYAMSWVRQAPGKGLEWVSLIIGSGRSTYYADSVKGRFTISRDNSKNTLYLQMNSLRAEDTAVYYCAKTASNLGRGGMDVWGQGTTVTVSSGTGGSGGTGSGTGGSTDIQLTQSPSSLSASVGDRVTITCRASQGISSHLAWYQQKPGKAPKLLIYAASSLQSGVPSRFSGSGSGTEFTLTISSLQPEDFATYYCQQFNSYPITFGQGTRLEIKRAAA
B14: SC04-098 (scFv)
scFv: AMAEVQLVQSGGGAVQPGRSLRLSCAASGFTFSSYGMHWVRQAPGKGLEWVAVILYDGSDKFYADSVKGRFTISRDNSKNTLYLQMNSLRAEDTAVYYCAKVAVAGTHFDYWGQGTLVTVSSGTGGSGGTGSGTGGSTDIQMTQSPSSLSASVGDRVTITCRASQGIRNDLGWYQQKPGKAPKLLIYAASSLQSGVPSRFSGSGSGTDFTLTISSLQPEDFATYYCQQLNSYPPTFGGGTKVEIKRAAA
B15: SC04-103 (scFv)
scFv: AMAQVQLQESGGGVVQPGRSLRLSCAASGFTFSSYGMHWVRQAPGKGLEWVAVILYDGSDKYYADSVKGRFTISRDNSKNTLYLQMNSLRAEDTAVYYCAKVAVAGESFDSWGRGTLVTVSSGTGGSGGTGSGTGGSTDIQLTQSPSSVSASVGDRVTITCRASQGISSWLAWYQQKPGKAPRSLIYDASSLQSGVPSRFSGSGSGTDFTLTISSLQPEDFATYYCQQADSFPITFGQGTRLEIKRAAA
B16: SC04-104 (scFv)
scFv: AMAQVQLQESGGGVVQPGRSLRLSCAASGFTFSSYGMHWVRQAPGKGLEWVATISYDGNVKDYADSVKGRFTISRDNSKNTLYLQMNSLRTEDTAVYYCAKIVVVTALDAFDIWGQGTMVTVSSGTGGSGGTGSGTGGSTDIQLTQSPSTLSASVGDRVTITCRASQILGHWLPLSWYQQKPGKAPKLLISKASSLESGVPPRFSGSGSGSDFTLTISSLQPDDFATYYCLQYHEYPLTFGGGTKLEIKRAAA
B17: SC04-108 (scFv)
scFv: AMAEVQLVQSGGGLVQPGGSLRLSCAASGFTFSSYGMHWVRQAPGKGLEWVAVILYDGSDKFYADSVKGRFTISRDNSKDTLYLQMNSLRAEDTAVYYCAKFMIVADDAFDIWGQGTMVTVSSGTGGSGGTGSGTGGSTDIQLTQSPSSLSASVGDRVTITCRASQGISSHLVWYQQKPGKAPKSLIYAASSLQSGVPSRFSGSESATDFTLTISSLQPEDFATYYCQQYYSYPITFGQGTRLEIKRAAA
B18: scFv SO57 (scFv)
scFv: AMAQVQLVQSGAEVKKPGSSVKVSCKASGGTFNRYTVNWVRQAPGQGLEWMGGIIPIFGTANYAQRFQGRLTITADESTSTAYMELSSLRSDDTAVYFCARENLDNSGTYYYFSGWFDPWGQGTLVTVSSGTGGSGGTGSGTGGSTQSALTQPRSVSGSPGQSVTISCTGTSSDIGGYNFVSWYQQHPGKAPKLMIYDATKRPSGVPDRFSGSKSGNTASLTISGLQAEDEADYYCCSYAGDYTPGVVFGGGTKLTVLGAAA

Each binder was assayed against purified rabies virus glycoprotein (rabies virus ERA strain) (rabies virus strain ERA, UniProt P03524 20-524) (assay: phage ELISA on coated purified G protein (ERA), anti-M13-HRP).

Compared with B1, B2 is lower in “OD 492 nm” value: 0.828 OD 492 nm for the first, 0.582 OD 492 nm for the second.

First: B3
Second: B4
The “OD 492 nm” value of the first is higher: 0.915 OD 492 nm for the first, 0.247 OD 492 nm for the second.

Going from B5 to B6, the “OD 492 nm” value falls from 0.278 OD 492 nm to 0.212 OD 492 nm.

First: B7
Second: B8
The “OD 492 nm” value of the first is lower: 0.547 OD 492 nm for the first, 0.721 OD 492 nm for the second.

Going from B9 to B10, the “OD 492 nm” value rises from 0.653 OD 492 nm to 0.74 OD 492 nm.

First: B11
Second: B12
The “OD 492 nm” value of the first is higher: 0.923 OD 492 nm for the first, 0.657 OD 492 nm for the second.

Compared with B13, B14 is lower in “OD 492 nm” value: 0.835 OD 492 nm for the first, 0.798 OD 492 nm for the second.

Compared with B15, B16 is lower in “OD 492 nm” value: 0.606 OD 492 nm for the first, 0.566 OD 492 nm for the second.

Going from B17 to B18, the “OD 492 nm” value rises from 0.363 OD 492 nm to 0.65 OD 492 nm.

These binders were tested against T1, glycoprotein of rabies virus strain CVS-11 (rabies virus strain CVS-11, UniProt O92284 20-524) (assay: cell-based or functional assay).
T1 sequence: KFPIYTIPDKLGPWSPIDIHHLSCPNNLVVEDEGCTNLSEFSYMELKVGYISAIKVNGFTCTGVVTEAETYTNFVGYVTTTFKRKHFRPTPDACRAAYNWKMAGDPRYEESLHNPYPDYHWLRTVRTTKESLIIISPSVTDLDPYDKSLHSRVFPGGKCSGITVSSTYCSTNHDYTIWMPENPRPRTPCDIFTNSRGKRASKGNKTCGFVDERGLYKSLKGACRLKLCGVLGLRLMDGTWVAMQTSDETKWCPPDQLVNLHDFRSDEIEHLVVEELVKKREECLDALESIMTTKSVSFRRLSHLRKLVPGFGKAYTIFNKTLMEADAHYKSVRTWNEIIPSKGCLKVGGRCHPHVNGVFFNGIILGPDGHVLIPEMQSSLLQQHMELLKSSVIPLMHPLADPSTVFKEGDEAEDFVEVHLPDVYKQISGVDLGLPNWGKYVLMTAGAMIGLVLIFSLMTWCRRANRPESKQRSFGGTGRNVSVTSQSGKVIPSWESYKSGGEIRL

Compared with B1, B2 is higher in “Potency (IU/ml)” value: 1.3 IU/ml for the first, greater than 54 IU/ml for the second.

First: B3
Second: B4
The “Potency (IU/ml)” value of the first is higher: 4 IU/ml for the first, 0.1 IU/ml for the second.

Going from B5 to B6, the “Potency (IU/ml)” value falls from 1.3 IU/ml to 0.3 IU/ml.

Going from B7 to B8, the “Potency (IU/ml)” value rises from 0.3 IU/ml to 0.7 IU/ml.

First: B9
Second: B10
The “Potency (IU/ml)” value of the first is higher: 2 IU/ml for the first, 0.3 IU/ml for the second.

Going from B11 to B12, the “Potency (IU/ml)” value rises from 0.2 IU/ml to 3 IU/ml.

Going from B13 to B14, the “Potency (IU/ml)” value rises from 0.2 IU/ml to 9 IU/ml.

First: B15
Second: B16
The “Potency (IU/ml)” value of the first is lower: 0.3 IU/ml for the first, 1 IU/ml for the second.

B17 was tested, and the “Potency (IU/ml)” value was 1 IU/ml.
